Experimental data taken from US20040229298A1.
Values joined by “and” are separate entries in the source; they are usually repeats but may differ in a detail not shown here. Equal values may be shown once. Ends that are not written are not given here.

Key:
[1] = target: GST-INADL PDZ domain 4 (human); assay: G assay ELISA, 10 uM biotin peptide on anti-GST-captured GST-PDZ
[2] = target: GST-NSP PDZ domain 1, clone #42.5 (human); assay: as above
[3] = target: GST-RGS12 PDZ domain 1 (human); assay: as above
[4] = target: GST-ERBIN PDZ domain 1 (human); assay: as above
[5] = target: GST-DLG1 PDZ domain 3 (human); assay: as above
[6] = target: GST-ZO-2 PDZ domain 2 (human); assay: as above
[7] = target: GST-MUPP1 PDZ domain 10 (human); assay: as above
[8] = target: GST-NeDLG PDZ domain 2 (human); assay: as above
[9] = target: GST-AF6 PDZ domain 1 (human); assay: as above
[10] = target: GST-KIAA0751 PDZ domain 1 (human); assay: as above
[11] = target: GST-APXL1 PDZ domain 1 (human); assay: as above
[12] = target: GST-KIAA0316 PDZ domain 1 (human); assay: as above
[13] = target: GST-ZO-2 PDZ domain 1 (human); assay: as above
[14] = target: GST-CARD14 PDZ domain 1 (human); assay: as above
[15] = target: GST-KIAA0380 PDZ domain 1, clone #25.6 (human); assay: as above
[16] = target: GST-Shroom PDZ domain 1 (human); assay: as above
[17] = target: GST-X-11 beta PDZ domain 2 (human); assay: as above
[18] = target: GST-GTPase PDZ domain 1 (human); assay: as above
[19] = target: GST-KIAA1719 PDZ domain 3 (human); assay: as above
[20] = target: GST-KIAA1634 PDZ domain 5 (human); assay: as above
[21] = target: GST-X-11 beta PDZ domain 1 (human); assay: as above
[22] = target: GST-MAGI 1 PDZ domain 4 (human); assay: as above
[23] = target: GST-MAGI 1 PDZ domain 3 (human); assay: as above
[24] = target: GST-Serine Protease PDZ domain 1 (human); assay: as above
[25] = target: GST-TIAM 2 PDZ domain 1 (human); assay: as above
[26] = target: GST-MUPP1 PDZ domain 13 (human); assay: as above
[27] = target: GST-KIAA0973 PDZ domain 1, clone #148.5 (human); assay: as above
[28] = target: GST-DLG2 PDZ domain 3 (human); assay: G assay ELISA, E6 PL peptide titrated on constant GST-PDZ

WTGRCMSCCRSSRTRRETQL (not fully specified; cysteine pairing not given here) [HPV16 E6 C-terminal PDZ ligand peptide (20 mer, biotinylated), P03126 139-158]
Ave OD [1]: 0.357 A450 nm
OD S/N (ratio to GST only well) [1]: 2.15
Ave OD [2]: 0.416 A450 nm
OD S/N (ratio to GST only well) [2]: 1.95
Ave OD [3]: 0.429 A450 nm
OD S/N (ratio to GST only well) [3]: 3.96
Ave OD [4]: 0.36 A450 nm and 0.342 A450 nm
OD S/N (ratio to GST only well) [4]: 1.82 and 1.3
Ave OD [5]: 0.398 A450 nm
OD S/N (ratio to GST only well) [5]: 2.45
Ave OD [6]: 0.356 A450 nm
OD S/N (ratio to GST only well) [6]: 2.15
Ave OD [7]: 0.393 A450 nm and 0.392 A450 nm
OD S/N (ratio to GST only well) [7]: 2.03 and 1.96
Ave OD [8]: 0.425 A450 nm
OD S/N (ratio to GST only well) [8]: 2.2
Ave OD [9]: 0.444 A450 nm
OD S/N (ratio to GST only well) [9]: 1.8
Ave OD [10]: 0.451 A450 nm
OD S/N (ratio to GST only well) [10]: 2.1
Ave OD [11]: 0.461 A450 nm
OD S/N (ratio to GST only well) [11]: 3.14
Ave OD [12]: 0.343 A450 nm
OD S/N (ratio to GST only well) [12]: 2.34
Ave OD [13]: 0.342 A450 nm
OD S/N (ratio to GST only well) [13]: 2.11
Ave OD [14]: 0.342 A450 nm
OD S/N (ratio to GST only well) [14]: 1.52
Ave OD [15]: 0.376 A450 nm
OD S/N (ratio to GST only well) [15]: 1.95
Ave OD [16]: 0.361 A450 nm
OD S/N (ratio to GST only well) [16]: 3.25
Ave OD [17]: 0.431 A450 nm and 0.426 A450 nm
OD S/N (ratio to GST only well) [17]: 2.95 and 1.78
Ave OD [18]: 0.35 A450 nm
OD S/N (ratio to GST only well) [18]: 1.12
Ave OD [19]: 0.346 A450 nm
OD S/N (ratio to GST only well) [19]: 1.65
Ave OD [20]: 0.403 A450 nm
OD S/N (ratio to GST only well) [20]: 2.07
Ave OD [21]: 0.352 A450 nm
OD S/N (ratio to GST only well) [21]: 2.02
Ave OD [22]: 0.395 A450 nm
OD S/N (ratio to GST only well) [22]: 1.2
Ave OD [23]: 0.354 A450 nm
OD S/N (ratio to GST only well) [23]: 1.46
Ave OD [24]: 0.343 A450 nm
OD S/N (ratio to GST only well) [24]: 1.55
Ave OD [25]: 0.356 A450 nm
OD S/N (ratio to GST only well) [25]: 2.05
Ave OD [26]: 0.435 A450 nm and 0.411 A450 nm
OD S/N (ratio to GST only well) [26]: 1.56 and 1.75
Ave OD [27]: 0.378 A450 nm
OD S/N (ratio to GST only well) [27]: 1.68
EC50 [28]: 1.6 µM
